Assay results reported in article PMC8771563, “Mitochondrion-targeted supramolecular “nano-boat” simultaneously inhibiting dual energy metabolism for tumor selective and synergistic chemo-radiotherapy” (Theranostics, 2022).
Peptide text beside a SMILES is read from it. * marks the point of attachment. X1 = O=C(c1nn(Cc2ccc(Cl)cc2Cl)c2ccccc12)*; Cyclenylacetyl = O=C(CN1CCNCCNCCNCC1)*; NBD = O=[N+]([O-])c1ccc(*)c2nonc12; βAla = NCCC(=O)O

How the values were obtained:
MCF-7 cells [1] = experiment: Annexin V-FITC/PI apoptosis flow cytometry; format: cell-based; settings: 50 μM, 48 h, Figure 2D
Description: of different groups at different doses were calculated. For apoptosis assay, MCF -7 and L929 cells were cultured in 6-well plates at a density of 2 × 10^5 cells per well, then were treated with different forms of drug for 48 h. Afterwards, cells were harvested at 1000 rpm for 5 min and then washed with ice-cold PBS twice. Upon being suspended in 100 μL 1× binding buffer, the samples were incubated with 5 μL of FITC-Annexin- V and 5 μL of PI for 15 min at room temperature in the dark. Finally, the cells were added in 100 μL 1× binding buffer blending gently and analyzed by flow cytometry (Becton Dickinson, NJ, USA) within 1 h.
MCF-7 cancer cells and L929 normal cells with a density of 1×10^5 cells/mL were cultured in confocal chambers and 6-well plates at 37 °C, respectively. After 70% confluence, the cells were treated with fresh medium which contained the same concentrations of LND-Pep-cyclen nanofibers, LND, cyclen, mixture of free LND and cyclen molecules for 12 h. Then, followed by washing twice with PBS and incubated with 1 mL DCFH-DA (10 μM) at 37 °C for 30 min in the dark. The cells in 6-well plates were harvested, washed, re- suspended and then loaded on flow cytometry for quantitate analysis. […] Excitation at 488 nm and signal collection at 525 ± 10 nm for DCFH-DA fluorescence. […]

MCF-7 tumors = experiment: In vivo anti-tumor evaluation; settings: MCF-7 tumor bearing nude mice, single i.v. injection, 5 mg/kg LND equivalent, day 14, vs PBS control
Description: (§1) MCF-7 cells (1×10^7 cells per mouse) were subcutaneously injected into the breast regions of six-week-old nude mice to establish the tumor model. When the tumor volume grew to approximately 100 mm^3, all the mice were randomly divided into eight groups with seven mice in each group. Except for the control groups, all groups were intravenously administrated with 200 μL of LND-Pep-cyclen nanofibers, free LND, and mixture of free LND and free cyclen (5 mg/kg LND equivalent and 2 mg/kg cyclen equivalent), respectively. After 12 hours, the mice in the chemo-radiotherapy group were exposed to 6 Gy γ-rays. To evaluate the therapeutic efficacy, the tumor size and the body weight were recorded daily. The tumor volumes were measured using a vernier caliper and then calculated using the formula: (width^2×length)/2. On the 14th day, all the mice were euthanized when the tumor volume in the PBS control group reached approximately 1500 mm^3. The tumors and normal tissues including heart, liver, spleen, lung and kidney in each group were carefully collected, photographed, and then fixed in 4% form aldehyde for histological analysis.

MCF-7 cells [2] = experiment: ATP content (luminescent assay); format: cell-based; settings: 50 μM, 24 h, per cell, control = 100%, mean n = 5
Description: MCF-7 cells with a density of 5000 cells/well were seeded in 96-well plates, and then were cultured at the incubators for 24 h at 37 °C under 5% CO2. After co-incubation with different forms of drugs for another 24 h, the growth medium was removed, and the wells were washed twice with PBS. The cell number of each group was counted before all the measurements. After dissociation and centrifugation, the liquid supernatant was collected for the following analysis of the HK activity and the lactate content. The hexokinase (HK) activity of the cells in each group was determined by the OD340 absorbance according to the specification of the HK activity assay kit (Solarbio, BC0745). The intracellular lactate content was detected using an L-lactate assay kit (Promega, J5021) and depended on the OD565 absorbance. A luminescent ATP detection assay kit (Abcam, ab113849) was used to analyze the quantity of ATP. All the data were shown as the mean value in per cell of each group.

MCF-7 cells [3] = experiment: MMP depolarization (JC-1 probe, CLSM); format: cell-based; settings: 50 μM, 24 h, serum-free medium, JC-1 10 µg/mL 30 min
Description: MCF-7 cancer cells with a density of 2 × 10^5 cells/mL were cultured in confocal cuvettes under 5% CO2 at 37 °C. After the number of anchorage-dependent cells reached up to 70%, the cells were incubated with a replaceable serum-free medium containing different forms of the drug (50 μM) for 24 h. This was followed by washing away the drug that was not absorbed and staining with 1 mL JC-1 probe (10 µg/mL) for 30 min in dark. After washing with PBS for three times, the cells were imaged by CLSM to examine the fluorescence intensity of the J-monomers and the J-aggregates.

MCF-7 cells [4] = experiment: CCK-8 cytotoxicity assay; format: cell-based; settings: 200 μM, 48 h
Description: Circular dichroism (CD) spectra
The secondary structure of LND- Pep-cyclen hydrogel and NBD- Pep-cyclen hydrogel were monitored by a circular dichroism (CD) spectrophotometer (BioLogic, MOS-450, France) system. The self-assembled hydrogel was added into a 0.1 cm quartz spectrophotometer cell (20- C/Q/0.1), then the CD signals were recorded in the 180- 280 nm scanning wavelength range. The final spectrogram was obtained after subtracting the PBS solvent background.
Mammary carcinoma cancer cells (MCF-7 and 4T1), and mouse fibroblast cells normal cells (L929) were all maintained in our lab. These cells were cultured in DMEM (MCF-7) and RPMI 1640 medium (4T1 and L929) supplemented with 10%
FBS and 1% penicillin-streptomycin in a humidified incubator maintained at 37 °C and 5% CO2, respectively.
Cytotoxicity and apoptosis analysis
All kinds of cells were seeded in 96-well plates at a density of 5000 cells per well. After 24 h incubation, the cells were treated with a series of pre-determined doses of LND-Pep-cyclen nanofibers, free LND, free cyclen, mixture of free LND and cyclen molecules for 48 h. After adding 10 μL CCK-8 solution to each well, the cells were incubated at 37 °C for another 4 h. OD450 was measured using a Thermo Scientific™ Varioskan™ LUX (Thermo, CA, USA), and then the cell viability values

MCF-7 cells [5] = experiment: Colony formation assay / radio-sensitization; format: cell-based; settings: 10 μM, 12 h, γ-rays 0-6 Gy, multi-target single-hit model, n = 3
Description: MCF-7 cells (1,000/well) were seeded in six-well plates and incubated with different forms of drugs at a concentration of 10 μM after 12 h. Subsequently, they were irradiated with γ-rays at doses of 0, 2, 4, and 6 Gy at 36 h. Following this, the cells were continuously cultured with a fresh drug-free medium in an incubator for another 5-8 days. The fixed colonies were then stained using crystal violet (0.25%, ethanol) for subsequently counting the number of colonies, and evaluating the colony inhibition ability of each treatment. Only colonies containing >50 cells were counted and survival curves were plotted with Origin. Furthermore, the SER value was used to compare the efficiencies of the different drugs in improving the sensitivity of the MCF-7 cells to radiotherapy. The SER was determined by a classical multi-target single-hit model using the following equation:
S = 1 - (1 - e ^-D/D0)^n (1)
where S is the survival fraction, D is the radiation dose, D0 is the mean lethal dose, and n is the extrapolation number. D0 and n were calculated using the“GraphPad Prism” software (version 8.0). The final survival fraction curve of each group was obtained by a nonlinear fitting using Origin 2018, and the SER was expressed using the following formulae:
SER = Dq (control group)/Dq (treated group (2)

[6] = Bio-compatibility evaluation (hematology, blood biochemistry); format: in vivo; settings: BALB/c mice, 20 mg/kg i.v. at day 0, 7, 14, 21 (four injections), n = 5
Description: Cambridge, UK), anti-Bcl-2 (1:1000, Abcam, Cambridge, UK), anti-smac and anti-GAPDH antibody. After washing with 1 ×TBST, membranes were incubated with corresponding secondary antibody for 1 h at room temperature. The membranes were washed 3 times by 1 ×TBST and illuminated by an enhanced chemiluminescent (ECL) kit (Pierce™ ECL Western Blotting Substrate, Thermo Scientific, Rockford, IL, USA) on a Bio- Rad film (Sigma-Aldrich, St. Louis, MO, USA).
Bio-compatibility evaluation
Six-week-old BALB/c mice were randomly assigned to two groups and intravenously administrated with 200 μL of LND-Pep-cyclen nanofibers (20 mg/kg) and PBS at 0 day, 7 day, 14 day, 21 day. All the mice were sacrificed at the last time point, followed by collecting the whole body blood for the hematology and blood

[7] = H&E histology of major organs after treatment; format: in vivo, nude mice; settings: single administration, compared with control group (Figure S22)
Description: as §1

MCF-7 and L929 cells = experiment: Flow cytometry of NBD accumulation in cancer versus normal cells; format: cell-based; settings: 50 μM, 4 h, flow cytometry MFI, n = 3
MCF-7 cells [8] = format: cell-based
Description: To confirm our hypothesis, we subsequently used a fluorescent molecule of 7-nitrobenzo-2-oxa-1,3-diazole (NBD), to replace LND, resulting in another peptide conjugate of NBD-GFFYK-cyclen (NBD-Pep-cyclen). […] Therefore, the NBD-Pep-cyclen conjugate could be very qualified as a substitute for LND-Pep-cyclen to verify its mitochondrial targeting performance. After incubation with MCF-7 cells for 4 hours, the cellular distribution of the NBD-Pep-cyclen nanofibers was investigated. […] The endocytosis mechanism for the cellular uptake was investigated using several well-established endocytotic inhibitors. […] In contrast, the addition of NaN3 (an inhibitor of energy-dependent endocytosis) and chlorpromazine (an inhibitor of clathrin-mediated endocytosis) reduced the uptake to less than 50%. […]
Figure S9 (A) CLSM images of MCF-7 cells treated with NBD-Pep-cyclen
nanofibers in the absence and presence of endocytotic inhibitors. […]

## O=C(O)c1nn(Cc2ccc(Cl)cc2Cl)c2ccccc12 [LND, Lonidamine]
MCF-7 cells [1]
  Cells in lower right quadrant (PI / Annexin V-FITC plot); early apoptosis rate: 1.45%
MCF-7 tumors
  Tumor growth / final tumor volume, chemotherapy only: barely inhibit the tumor growth
MCF-7 cells [2]
  ATP content, of control: 60%
MCF-7 cells [3]
  MMP depolarization: very limited effect
MCF-7 cells [4]
  Cell survival rate: 50%
MCF-7 cells [5]
  SER (sensitization enhancement ratio): 1.78

## O=C(CN1CCNCCNCCNCC1)NCCCC[C@H](NC(=O)[C@H](Cc1ccc(O)cc1)NC(=O)[C@H](Cc1ccccc1)NC(=O)[C@H](Cc1ccccc1)NC(=O)CNC(=O)c1nn(Cc2ccc(Cl)cc2Cl)c2ccccc12)C(=O)O [LND-Pep-cyclen] (X1-GFFYK(Cyclenylacetyl)-OH)
[6]; vs control
  Liver and kidney indices (ALT, AST, TBIL, BUN): normal with no relevant difference
[6]; vs untreated control
  Blood routine values: no apparent variations
[7]
  Histological changes in liver, spleen, kidney, heart, lung (H&E): no appreciable inflammatory damage and tissue damage

## O=C(CCNc1ccc([N+](=O)[O-])c2nonc12)NCC(=O)N[C@@H](Cc1ccccc1)C(=O)N[C@@H](Cc1ccccc1)C(=O)N[C@@H](Cc1ccc(O)cc1)C(=O)N[C@@H](CCCCNC(=O)CN1CCNCCNCCNCC1)C(=O)O [NBD-Pep-cyclen] ({NBD-βAla}-GFFYK(Cyclenylacetyl)-OH)
MCF-7 and L929 cells
  NBD fluorescence intensity in MCF-7 cells relative to L929 cells: more than two-folds
MCF-7 cells [8]
  Cellular uptake in presence of NaN3: less than 50%
  Cellular uptake in presence of chlorpromazine: less than 50%
  Cellular uptake in presence of nystatin: barely affected
  Cellular uptake in presence of wortmannin: barely affected
